Consider three variants from FireProtDB (doi:10.1021/bi962939w).

First the molecules themselves.
B1: Interleukin-6, P08505 (parent)
chain: MKFLSARDFHPVAFLGLMLVTTTAFPTSQVRRGDFTEDTTPNRPVYTTSQVGGLITHVLWEIVEMRKELCNGNSDCMNNDDALAENNLKLPEIQRNDGCYQTGYNQEICLLKISSGLLEYHSYLEYMKNNLKDNKKDKARVLQRDTETLIHIFNQEVKDLHKIVLPTPISNALLTDKLESQKEWLRTKTIQFILKSLEEFLKVTLRSTRQT

The data set covers variants of B1. To be noted: Mus musculus, 25 °C, CD, structure 2L3Y, whole UniProt chain shown.
[1] abbreviates: pH 4, Urea, Sodium acetate 10 mM.

In the case of MKFLSARDFHPVAFLGLMLVTTTAFPTSQVRRGDFTEDTTPNRPVYTTSQVGGLITAVLWEIVEMRKELCNGNSDCMNNDDALAENNLKLPEIQRNDGCYQTGYNQEICLLKISSGLLEYHSYLEYMKNNLKDNKKDKARVLQRDTETLIHIFNQEVKDLHKIVLPTPISNALLTDKLESQKEWLRTKTIQFILKSLEEFLKVTLRSTRQT [H57A], under setting [1], the “ddG of mutation (higher = less stable)” value stood at 3.9 kcal/mol, the denaturant m value is 1.9 kcal/mol/M, the “denaturant midpoint (higher = more stable)” value (“denaturant midpoint” below) was 3.58 M and the unfolding free energy was determined as 6.9 kcal/mol. Under “pH 7.4, GdnHCl, Tris-HCl 10 mM”, the “ddG of mutation (higher = less stable)” value is 0.3 kcal/mol, the denaturant m value is 0.8 kcal/mol/M, the “denaturant midpoint” value worked out at 2 M and the unfolding free energy came out at 1.6 kcal/mol.
Turning to MKFLSARDFHPVAFLGLMLVTTTAFPTSQVRRGDFTEDTTPNRPVYTTSQVGGLITAVLAEIVEMRKELCNGNSDCMNNDDALAENNLKLPEIQRNDGCYQTGYNQEICLLKISSGLLEYHSYLEYMKNNLKDNKKDKARVLQRDTETLIHIFNQEVKDLHKIVLPTPISNALLTDKLESQKEWLRTKTIQFILKSLEEFLKVTLRSTRQT [H57A W60A], under setting [1], the “ddG of mutation (higher = less stable)” value worked out at 2.2 kcal/mol, the denaturant m value was 2.3 kcal/mol/M, the “denaturant midpoint” value worked out at 3.8 M and the unfolding free energy was 8.6 kcal/mol. Moreover, under “pH 7.4, GdnHCl, Tris-HCl 10 mM”, the “ddG of mutation (higher = less stable)” value is -4.1 kcal/mol, the denaturant m value was determined as 3 kcal/mol/M, the “denaturant midpoint” value stood at 2 M and the unfolding free energy is 6 kcal/mol. In addition, where the note is “pH 7.4, Urea, Tris-HCl 10 mM”, the “ddG of mutation (higher = less stable)” value was -1.8 kcal/mol, the denaturant m value was 1.5 kcal/mol/M, the “denaturant midpoint” value was 4.9 M and the unfolding free energy amounted to 7.5 kcal/mol.
On to MKFLSARDFHPVAFLGLMLVTTTAFPTSQVRRGDFTEDTTPNRPVYTTSQVGGLITHVLAEIVEMRKELCNGNSDCMNNDDALAENNLKLPEIQRNDGCYQTGYNQEICLLKISSGLLEYHSYLEYMKNNLKDNKKDKARVLQRDTETLIHIFNQEVKDLHKIVLPTPISNALLTDKLESQKEWLRTKTIQFILKSLEEFLKVTLRSTRQT [W60A], for which, under setting [1], the “ddG of mutation (higher = less stable)” value came to 2 kcal/mol, the denaturant m value worked out at 2.5 kcal/mol/M, the “denaturant midpoint” value was found to be 3.5 M and the unfolding free energy turned out to be 8.8 kcal/mol. Where the note is “pH 7.4, GdnHCl, Tris-HCl 10 mM”, the “ddG of mutation (higher = less stable)” value was -3.1 kcal/mol, the denaturant m value turned out to be 2.5 kcal/mol/M, the “denaturant midpoint” value is 4.6 M and the unfolding free energy is 5 kcal/mol. In addition, for the setting “pH 7.4, Urea, Tris-HCl 10 mM”, the “ddG of mutation (higher = less stable)” value came out at 1.7 kcal/mol, the denaturant m value is 1 kcal/mol/M, the “denaturant midpoint” value was found to be 4.6 M and the unfolding free energy is 4 kcal/mol.
